Biological target: human FcμR on BW5147 T cell transductants (human) (UniProt O60667)
Assay: radioligand binding

UniProt O60667, sequence (O60667 17-390): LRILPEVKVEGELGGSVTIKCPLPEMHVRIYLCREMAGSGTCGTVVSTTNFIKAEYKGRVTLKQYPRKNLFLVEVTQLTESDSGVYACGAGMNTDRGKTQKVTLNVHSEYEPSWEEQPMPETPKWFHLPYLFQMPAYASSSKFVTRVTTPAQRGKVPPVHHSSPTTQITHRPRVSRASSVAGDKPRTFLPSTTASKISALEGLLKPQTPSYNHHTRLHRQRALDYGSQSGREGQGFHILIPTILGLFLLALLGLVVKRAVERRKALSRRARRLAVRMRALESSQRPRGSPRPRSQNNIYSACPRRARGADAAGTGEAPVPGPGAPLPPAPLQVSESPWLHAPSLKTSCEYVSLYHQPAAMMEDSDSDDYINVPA

## ^125I-labeled human IgM myeloma protein (antibody)
  Kd: 10.8 nM

From paper PMC2806608
